The values that follow come from paper PMC1950529.

Test [1] has as its target Thermus aquaticus DnaB helicase (Thermus aquaticus). Briefly: SEC.
Test [2] shares this target. Briefly: SEC. This is another data set of the same source.

Where two headings read alike, the source gives them in different places.

For “Thermus aquaticus DnaB helicase (enzyme)”, the stoichiometry N in test [1] and in test [2] was 6 in each case.
